Data from patent US12263210B2, “Immunogenic compounds for cancer therapy” (priority 2016, dated 2025).

How the values were obtained:
[1] = system: IFNγ-producing cells (splenocytes); experiment: ELISPOT-IFNγ assay on splenocytes of vaccinated β/A2/DR3 mice; type: in vivo, mouse; conditions: for Percentage of ConA-induced response (ELISPOT-IFNγ): mice vaccinated with the labelled peptide (100 μg s.c. + HHD-DR3, IFA, d0/d14), mean, SEM
[2] = biological target: T1, HLA-A*0201 (Homo sapiens, UniProt P04439, D140Y/D185E/D98H/E176V/E277Q/G131W/G231S/I119V/I121R/I166T/I218V/L300P/L318F/N151K/N90K/P208A/P217A/Q86G/Q94H/R138H/R169H/T345S); experiment: Affinity of the peptide to T2 cell line (HLA-A*0201 expression, FACS); type: cell-based; conditions: for Concentration that induces 20% of expression of the HLA-A*0201 / Mean fluorescence intensity: T2 ATCC cells; for Concentration that induces 20% of expression of the HLA-A*0201: Example 1; for Binding to HLA-A*0201 (in words) / Affinity to HLA-A*0201 compared with the corresponding human peptide (in words): T2 cells; for Affinity to HLA-A*0201 compared with the corresponding human peptide (in words): relative affinity, lower value = higher affinity; for Relative affinity: conc. inducing 20% expression / same of reference peptide HIV pol 589-597; for HLA-A2 labelling at 0.1 μM / HLA-A2 labelling at 1 μM / HLA-A2 labelling at 10 μM / HLA-A2 labelling at 100 μM: percentage of labelling of HIV pol 589-597 at 100 μM; for HLA-A2 labelling at 0.1 μM: peptide 0.1 μM; for HLA-A2 labelling at 1 μM: peptide 1 μM; for HLA-A2 labelling at 10 μM: peptide 10 μM; for HLA-A2 labelling at 100 μM: peptide 100 μM
T1 construct: the human tumoral cell T2 which expresses the HLA-A*0201 molecule; endogenous in cells; host or cells: T2 cells (human, TAP1/2 negative; 'T2 ATCC Cells')
Procedure: Affinity measurement of the peptides is achieved with the human tumoral cell T2 which expresses the HLA-A*0201 molecule, but which is TAP1/2 negative and incapable of presenting endogenous peptides.
T2 cells (2.10^5 cells per well) are incubated with decreasing concentrations of peptides from 100 μM to 0.1 μM in a AIMV medium supplemented with 100 ng/μl of human β2m at 37° C. for 16 hours. Cells are then washed two times and marked with the anti-HLA-A2 antibody coupled to PE (clone BB7.2, BD Pharmagen).
The analysis is achieved by FACS (Guava Easy Cyte). […]

[3] = ex vivo re-stimulation with IL13RA2-B pAg 10 μM
[4] = ex vivo re-stimulation with IL13RA2-H pAg 10 μM

## FLPFGFILV [IL13RA2-B]
[1]; compared to IL13RA2-H-vaccinated animals (group 2)
  T cell responses in the ELISPOT-IFNγ assay after vaccination (in words): improved T cell responses
[1]; [3]
  Percentage of ConA-induced response (ELISPOT-IFNγ): 56.3%
[1]; [4]
  Percentage of ConA-induced response (ELISPOT-IFNγ): 32.3%
[2]
  Concentration that induces 20% of expression of the HLA-A*0201: 4.4 µM
  Binding to HLA-A*0201 (in words): binds strongly
[2]; peptide at 0.1 μM
  Mean fluorescence intensity: 9.9
[2]; peptide at 100 µM
  Mean fluorescence intensity: 112.03

## GLPPDVQRV [MMP2-H, reference compound]
[2]; Table 8
  Conc. inducing 20% of HLA-A2 expression: 1.76 µM

## ILLGVVFGI [ERBB2-3B4]
[2]
  Affinity to HLA-A*0201 compared with the corresponding human peptide (in words): higher affinity
[2]; Table 7
  Conc. inducing 20% of HLA-A2 expression: 0.9 µM

## ITSDVPFSV [PMEL-B]
[2]
  Affinity to HLA-A*0201 compared with the corresponding human peptide (in words): higher affinity
[2]; Table 8
  Conc. inducing 20% of HLA-A2 expression: 18.24 µM

## KLVEWLAML [MAGE C1B]
[2]
  Affinity to HLA-A*0201 compared with the corresponding human peptide (in words): higher affinity
[2]; Table 8
  Conc. inducing 20% of HLA-A2 expression: 30.91 µM

## KVVEFLAML [MAGE C1H, reference compound]
[2]; Table 8
  Conc. inducing 20% of HLA-A2 expression: 60.07 µM

## MIAVFLPIV [STEAP-H, reference compound]
[2]; Table 8
  Conc. inducing 20% of HLA-A2 expression: 33.45 µM

## MLAVFLPLV [STEAP-B1]
[2]
  Affinity to HLA-A*0201 compared with the corresponding human peptide (in words): higher affinity
[2]; Table 8
  Conc. inducing 20% of HLA-A2 expression: 5 µM

## RLLEETDLV [ERBB2-1B]
[2]
  Affinity to HLA-A*0201 compared with the corresponding human peptide (in words): higher affinity
[2]; Table 7
  Conc. inducing 20% of HLA-A2 expression: 9.5 µM

## SLPPDVQQV [MMP2-B]
[2]
  Affinity to HLA-A*0201 compared with the corresponding human peptide (in words): higher affinity
[2]; Table 8
  Conc. inducing 20% of HLA-A2 expression: 0.88 µM

## TMNGKSSPV [ENAH-1B]
[2]
  Affinity to HLA-A*0201 compared with the corresponding human peptide (in words): higher affinity
[2]; Table 9
  Conc. inducing 20% of HLA-A2 expression: 33.45 µM
  Relative affinity: 1.26
  HLA-A2 labelling at 0.1 μM: 12.71
  HLA-A2 labelling at 1 μM: 14.18
  HLA-A2 labelling at 10 μM: 2.93
  HLA-A2 labelling at 100 μM: 100.24

## TMNGSKSPV [ENAH-1H, reference compound]
[2]
  Binding to HLA-A*0201 (in words): does not bind
[2]; Table 9
  HLA-A2 labelling at 0.1 μM: 8.31
  HLA-A2 labelling at 1 μM: −2.93
  HLA-A2 labelling at 10 μM: 19.07
  HLA-A2 labelling at 100 μM: 18.58

## VLLGVVFGV [ERBB2-3B2]
[2]
  Affinity to HLA-A*0201 compared with the corresponding human peptide (in words): higher affinity
[2]; Table 7
  Conc. inducing 20% of HLA-A2 expression: 6.9 µM
  Relative affinity: 0.19
  HLA-A2 labelling at 0.1 μM: −14.62
  HLA-A2 labelling at 1 μM: 1.51
  HLA-A2 labelling at 10 μM: 56.97
  HLA-A2 labelling at 100 μM: 335.97

## VMLGVVFGI [ERBB2-3B3]
[2]
  Affinity to HLA-A*0201 compared with the corresponding human peptide (in words): higher affinity
[2]; Table 7
  Conc. inducing 20% of HLA-A2 expression: 12.5 µM

## VMLGVVFGV [ERBB2-3B1]
[2]
  Affinity to HLA-A*0201 compared with the corresponding human peptide (in words): higher affinity
[2]; Table 7
  Conc. inducing 20% of HLA-A2 expression: 9 µM

## VVLGVVFGI [ERBB2-3H, reference compound]
[2]; Table 7
  Conc. inducing 20% of HLA-A2 expression: 16.3 µM
  Relative affinity: 0.45
  HLA-A2 labelling at 0.1 μM: −12.61
  HLA-A2 labelling at 1 μM: −24.03
  HLA-A2 labelling at 10 μM: 11.93
  HLA-A2 labelling at 100 μM: 196.47

## WLPFGFILI [IL13RA2-H, reference compound]
[1]; [3]
  Percentage of ConA-induced response (ELISPOT-IFNγ): 2.0%
[1]; [4]
  Percentage of ConA-induced response (ELISPOT-IFNγ): 1.1%
[2]
  Concentration that induces 20% of expression of the HLA-A*0201: 100 µM
  Binding to HLA-A*0201 (in words): does not bind

## YLAVFLPIV [STEAP-B2]
[2]
  Affinity to HLA-A*0201 compared with the corresponding human peptide (in words): higher affinity
[2]; Table 8
  Conc. inducing 20% of HLA-A2 expression: 8.22 µM
